Target: full-length human Hsp90α (human), P07900
Assay: BLI

| Binder | Kd [nM] |
| --- | --- |
| PRPRPRPRPRPRPRPRPRPRPRPRPRPRPRPRPRPRPRPR (modifications not checked) [PR20 dipeptide repeats] | 9.08 |
| GRGRGRGRGRGRGRGRGRGRGRGRGRGRGRGRGRGRGRGR (modifications not checked) [GR20 dipeptide repeats] | 8.97 |

From PMC11234873
